Values belong to the binder of their own block, whether it stands above or below them.
Columns and labels:
[1] = target: T1, recombinant human VISTA (His-tagged) (human, UniProt Q9H7M9 33-194); experiment: ELISA, plate coated with human B7H5 (VISTA), antibody titrated
T1 construct: bought soluble protein (Sino Biological); also called hVISTA; human VISTA polypeptide
Experimental: 384-well plates were coated with 1 μg/ml of target antigen diluted in PBS for 16 hrs at 4° C. […] After washing, plates were developed with colorimetric detection substrate 3,3′,5,5′-tetramethylbenzidine (Turbo-TMB; Pierce) for 10 min.

[2] = target: T1, recombinant human VISTA (His-tagged); experiment: antigen-binding ELISA; HMBD-002 in F2, day 30 at 40°C
[3] = target: T1, recombinant human VISTA (His-tagged); experiment: antigen-binding ELISA; HMBD-002 10 mg/mL in F8, day 0
[4] = target: T1, recombinant human VISTA (His-tagged); experiment: antigen-binding ELISA; HMBD-002 10 mg/mL in F9, day 0
[5] = target: T1, recombinant human VISTA (His-tagged); experiment: antigen-binding ELISA; HMBD-002 in F3, day 20 at 40°C
[6] = target: T2, mouse VISTA expressed on cells (mouse, UniProt Q9D659 33-308); experiment: flow cytometry, HEK293T cells expressing the VISTA ortholog
T2 construct: whole, on cells; also called murine VISTA on transfected cells; VISTA on mouse CD11b+ myeloid cells
T2 sequence (looked up): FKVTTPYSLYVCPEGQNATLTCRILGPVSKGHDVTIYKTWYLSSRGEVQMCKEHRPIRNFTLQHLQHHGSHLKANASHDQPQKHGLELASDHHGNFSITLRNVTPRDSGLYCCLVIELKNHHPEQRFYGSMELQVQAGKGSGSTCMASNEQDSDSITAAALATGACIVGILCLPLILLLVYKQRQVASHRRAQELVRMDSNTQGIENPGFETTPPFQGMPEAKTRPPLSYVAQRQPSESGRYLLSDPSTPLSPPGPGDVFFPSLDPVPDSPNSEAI
Experimental: To identify myeloid cells, PBMCs were further incubated with CD45 FITC and CD11b PE. Cells were washed again and resuspended in 200 μL of FACS flow buffer (PBS with 5 mM EDTA) for flow cytometric analysis using MACSQuant 10 (Miltenyi). After acquisition, all raw data were analyzed using Flowlogic software. Cells were gated using forward and side scatter, and the percentage of positive cells was determined.

human B7H4 = target: T3, human B7H4 (human, UniProt Q7Z7D3 25-258, limits assumed); experiment: ELISA, plate coated with the antigen
T3 construct: also called VTCN1
T3 sequence (looked up): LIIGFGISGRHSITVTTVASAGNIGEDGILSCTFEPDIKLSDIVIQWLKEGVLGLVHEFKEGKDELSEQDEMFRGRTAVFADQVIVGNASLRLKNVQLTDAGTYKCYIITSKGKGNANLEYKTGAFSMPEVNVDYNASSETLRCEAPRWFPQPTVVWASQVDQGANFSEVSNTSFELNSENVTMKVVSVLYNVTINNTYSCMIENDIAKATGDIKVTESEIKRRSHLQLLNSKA

human B7H7 = target: T4, human B7H7 (human, UniProt Q9UM44 23-344); experiment: ELISA, plate coated with the antigen
T4 construct: also called HHLA2
T4 sequence (looked up): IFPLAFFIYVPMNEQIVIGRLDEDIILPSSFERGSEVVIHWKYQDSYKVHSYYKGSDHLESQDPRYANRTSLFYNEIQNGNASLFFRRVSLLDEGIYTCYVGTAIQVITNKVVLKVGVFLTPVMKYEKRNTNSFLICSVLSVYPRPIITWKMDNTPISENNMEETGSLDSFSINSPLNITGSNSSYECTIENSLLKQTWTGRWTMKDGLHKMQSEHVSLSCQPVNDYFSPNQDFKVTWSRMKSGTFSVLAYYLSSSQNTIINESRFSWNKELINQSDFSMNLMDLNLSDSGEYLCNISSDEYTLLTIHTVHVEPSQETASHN

human PD-1 = human PD-1 (human, UniProt Q15116 25-167); experiment: ELISA, plate coated with the antigen
human B7H6 = target: T5, human B7H6 (human, UniProt Q68D85 25-262); experiment: ELISA, plate coated with the antigen
T5 construct: also called NCR3LG1
T5 sequence (looked up): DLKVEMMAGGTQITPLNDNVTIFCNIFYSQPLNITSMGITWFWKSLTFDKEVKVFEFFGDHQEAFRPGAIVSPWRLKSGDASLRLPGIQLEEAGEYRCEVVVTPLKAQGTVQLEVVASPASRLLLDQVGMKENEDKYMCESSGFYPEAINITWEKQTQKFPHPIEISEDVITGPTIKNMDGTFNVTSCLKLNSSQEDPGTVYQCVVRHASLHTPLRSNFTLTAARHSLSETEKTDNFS

human CTLA4 = human CTLA4 (human, UniProt P16410 36-162); experiment: ELISA, plate coated with the antigen
human B7H3 = target: T6, human B7H3 (human, UniProt Q5ZPR3 29-461, limits assumed); experiment: ELISA, plate coated with the antigen
T6 construct: also called CD276
T6 sequence (looked up): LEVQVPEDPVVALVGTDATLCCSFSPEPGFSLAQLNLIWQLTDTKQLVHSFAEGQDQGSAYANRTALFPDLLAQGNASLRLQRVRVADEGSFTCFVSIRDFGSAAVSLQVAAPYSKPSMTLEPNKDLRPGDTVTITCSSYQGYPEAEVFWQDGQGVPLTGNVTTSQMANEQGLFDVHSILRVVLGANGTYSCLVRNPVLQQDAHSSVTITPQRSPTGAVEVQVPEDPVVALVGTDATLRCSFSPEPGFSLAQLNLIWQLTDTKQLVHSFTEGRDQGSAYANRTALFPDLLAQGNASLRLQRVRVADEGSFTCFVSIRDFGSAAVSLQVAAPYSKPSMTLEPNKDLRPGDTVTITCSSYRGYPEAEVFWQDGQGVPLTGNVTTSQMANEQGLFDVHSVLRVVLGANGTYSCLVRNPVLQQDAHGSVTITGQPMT

[7] = target: T1, recombinant human VISTA (His-tagged); experiment: BLI (Octet QK384): His-tagged human VISTA on anti-Penta-HIS tips, V4 as analyte; value of the line above the sensorgram, which differs from the table below it
Experimental: All measurements were performed at 25° C. with agitation at 1000 rpm. Kinetic measurements for antigen binding were performed by loading anti-VISTA antibody at different concentrations (indicated in the Figures) for 120 s, followed by a 120 s dissociation time by transferring the biosensors into assay buffer containing wells. Sensograms were referenced for buffer effects and then fitted using the Octet QK384 user software (Pall ForteBio, USA).
Kinetic responses were subjected to a global fitting using a one site binding model to obtain values for association (kon), dissociation (koff) rate constants and the equilibrium dissociation constant (KD). Only curves that could be reliably fitted with the software (R²>0.90) were included in the analysis.

human CTLA4, sequence (P16410 36-162 limits assumed): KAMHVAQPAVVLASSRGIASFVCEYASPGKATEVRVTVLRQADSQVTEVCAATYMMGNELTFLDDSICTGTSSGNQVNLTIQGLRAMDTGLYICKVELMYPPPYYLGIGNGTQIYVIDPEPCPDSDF
human PD-1, sequence (Q15116 25-167 limits assumed): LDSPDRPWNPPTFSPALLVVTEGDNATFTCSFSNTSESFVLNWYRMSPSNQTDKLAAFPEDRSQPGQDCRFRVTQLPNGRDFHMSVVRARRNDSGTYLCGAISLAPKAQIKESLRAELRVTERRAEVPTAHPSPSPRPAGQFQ

EC50 (read off the curve) [1]: ~0.01 nM | EC50 [2]: 0.0202 nM | EC50 [3]: 0.0395 nM | EC50 [4]: 0.0315 nM | EC50 [5]: 0.0189 nM | EC50 [6]: 8.94 nM
B1: V4-C26 hIgG4 (antibody)
heavy: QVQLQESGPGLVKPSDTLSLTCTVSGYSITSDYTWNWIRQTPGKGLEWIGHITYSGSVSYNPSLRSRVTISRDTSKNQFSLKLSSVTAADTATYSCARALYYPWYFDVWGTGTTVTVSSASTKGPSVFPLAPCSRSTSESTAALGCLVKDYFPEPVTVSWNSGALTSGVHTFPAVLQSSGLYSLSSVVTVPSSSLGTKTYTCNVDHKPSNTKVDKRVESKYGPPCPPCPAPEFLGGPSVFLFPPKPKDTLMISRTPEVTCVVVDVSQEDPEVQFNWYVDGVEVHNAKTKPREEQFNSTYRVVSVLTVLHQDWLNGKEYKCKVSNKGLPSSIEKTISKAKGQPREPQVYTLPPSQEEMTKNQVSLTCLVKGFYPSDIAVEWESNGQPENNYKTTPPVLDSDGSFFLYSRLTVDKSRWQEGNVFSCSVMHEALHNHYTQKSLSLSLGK
light: EIVLTQSPATLSLSPGERATLSCRASSSVGYIHWYQQKPGQAPRPIIYTTSNRATGIPARFSGSGSGTDNTLTISSLEPEDSAVYYCQQWSSYPPITFGGGTKLEVKRTVAAPSVFIFPPSDEQLKSGTASVVCLLNNFYPREAKVQWKVDNALQSGNSQESVTEQDSKDSTYSLSSTLTLSKADYEKHKVYACEVTHQGLSSPVTKSFNRGEC
notes: human IgG4 (S228P)/kappa format; also called HMBD-002; HMBD-002-V4C26

binding result (human B7H4): no binding (tested: log -7.5 M) | binding result (human B7H7): no binding (tested: log -7.5 M) | binding result (human PD-1): no binding (tested: log -7.5 M) | binding result (human B7H6): no binding (tested: log -7.5 M) | binding result (human CTLA4): no binding (tested: log -7.5 M) | binding result (human B7H3): no binding (tested: log -7.5 M)
B2: anti-VISTA clone V4-C27 IgG1 (antibody, V domains shown)
VH: QVQLQESGPGLVKPSDTLSLTCTVSGYSITSDYTWNWIRQTPGKGLEWIGHITYSGSVSYNPSLRSRVTISRDTSKNQFSLKLSSVTAADTATYSCARALYYPWYFDVWGTGTTVTVSS
VL: EIVLTQSPATLSLSPGERATLSCRASSSVGYIHWYQQKPGQAPRPLIYATYNRATGIPARFSGSGSGTDNTLTISSLEPEDSAVYYCQQWSSYPPITFGGGTKLEVKR

koff [7]: < 4.54e-07 s⁻¹
B3: anti-VISTA clone 4M2-C12 IgG1 (antibody)
heavy: not shown
light: DIVITQTPAILSTSPGEKVTMTCRASSSVGYIHWYQQKPGSSPKPWIYATSNLASGVPARFSGSGSGTSNSLTITRVEAEDAATYYCQQWSSYPPITFGGGTKLEVKRTVAAPSVFIFPPSDEQLKSGTASVVCLLNNFYPREAKVQWKVDNALQSGNSQESVTEQDSKDSTYSLSSTLTLSKADYEKHKVYACEVTHQGLSSPVTKSFNRGEC
notes: mouse variable regions on human IgG1/kappa constant regions; also called V4; V4pr

Source: patent US20250313631A1 (HUMMINGBIRD BIOSCIENCE PTE, published 2025)
